Test results published in US20180265572A1 (Bristol-Myers Squibb, published 2018).
Where “and” joins values, the source holds several entries; their conditions need not be identical. Equal values may be shown once. Each block holds one binder with its values, some of them ahead of it.

Legend:
[1] = target: VEGFR-2 in nude mice (in vivo) (UniProt P35918 20-1345, limits assumed); test: cell-based or functional assay
[2] = target: VEGFR-2 in cynomolgus monkeys (in vivo); test: cell-based or functional assay
human IGF-IR-Fc fusion [3] = target: T1, human IGF-IR-Fc fusion (human, UniProt P08069 31-932); test: SPR (Biacore), IGF-IR-Fc captured on Protein A
T1 construct: range 1-932; If it counts on the precursor, it includes the signal peptide; also called IGF1R-Fc; not shown: hinge and constant regions of human IgG
T1 sequence (P08069 31-932 limits assumed, form in doubt): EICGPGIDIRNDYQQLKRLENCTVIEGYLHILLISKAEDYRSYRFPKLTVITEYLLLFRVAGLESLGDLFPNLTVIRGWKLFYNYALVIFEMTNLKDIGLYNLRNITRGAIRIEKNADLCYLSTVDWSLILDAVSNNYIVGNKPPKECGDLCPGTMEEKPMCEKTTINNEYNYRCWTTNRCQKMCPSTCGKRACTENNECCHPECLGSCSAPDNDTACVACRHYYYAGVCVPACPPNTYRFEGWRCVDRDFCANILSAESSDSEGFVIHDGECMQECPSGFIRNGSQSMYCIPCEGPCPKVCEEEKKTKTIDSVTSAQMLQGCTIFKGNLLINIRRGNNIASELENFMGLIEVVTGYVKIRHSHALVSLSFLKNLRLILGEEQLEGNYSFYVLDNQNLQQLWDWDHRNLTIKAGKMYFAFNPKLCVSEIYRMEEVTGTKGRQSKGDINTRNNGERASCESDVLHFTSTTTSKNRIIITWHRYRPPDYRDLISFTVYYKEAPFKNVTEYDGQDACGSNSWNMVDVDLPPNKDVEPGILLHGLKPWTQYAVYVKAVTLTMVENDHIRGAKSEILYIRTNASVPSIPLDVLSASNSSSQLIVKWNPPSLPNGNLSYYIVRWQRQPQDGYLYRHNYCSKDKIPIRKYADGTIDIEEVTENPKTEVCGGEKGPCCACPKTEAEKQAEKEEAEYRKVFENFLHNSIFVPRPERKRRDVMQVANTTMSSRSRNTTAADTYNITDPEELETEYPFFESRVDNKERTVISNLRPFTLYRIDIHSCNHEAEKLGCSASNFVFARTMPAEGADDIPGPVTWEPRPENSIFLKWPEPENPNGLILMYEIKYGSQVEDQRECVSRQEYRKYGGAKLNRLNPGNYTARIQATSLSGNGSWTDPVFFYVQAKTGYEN
Description: (§1) An alternative method is to capture the IGF—IR-Fc on Protein A. This method was used for calculating the affinity and kinetics of certain versions of the construct 385A08-Fn-V2B-cys (both pegylated and non-pegylated and with or without his tag) from midscale and large scale materials. Specifically, IGF—IR-Fc was captured on Protein A immobilized on a Biacore CM5 sensor chip by amine coupling. VEGFR2-Fc was immobilized directly on a CM5 chip by amine coupling. The affinity and kinetic analysis involved the capture of IGF—IR-Fc on Protein A followed by injection of the tandem adnectin in solution over IGF—IR-Fc and VEGFR2-Fc. The analytical surface was regenerated between samples with glycine pH 1.5. Sensorgrams were obtained at each concentration and were evaluated using Biacore T100 evaluation software to determine the rate constants kₐ (kₒₙ) and kd (koff).

human IGF-IR-Fc fusion [4] = target: T1, human IGF-IR-Fc fusion; test: SPR (Biacore), IGF1R-Fc captured on Protein A
Experimental: (§2) Affinity data was also measured from midscale and large scale material, for the pegylated version of the tandem construct 385A08-Fn-V2B-cys (SEQ ID NO: 9, with and without his tag). The specific materials and methods for these calculations are described below.
as §1

VEGFR2-Fc (R&D Systems) [5] = target: T2, VEGFR2-Fc (R&D Systems) (UniProt P35968 20-764); test: SPR (Biacore), VEGFR2-Fc immobilised directly on a CM5 chip
T2 construct: Bought reagent; not shown: Fc part of the bought fusion; not described
T2 sequence (P35968 20-764 limits assumed): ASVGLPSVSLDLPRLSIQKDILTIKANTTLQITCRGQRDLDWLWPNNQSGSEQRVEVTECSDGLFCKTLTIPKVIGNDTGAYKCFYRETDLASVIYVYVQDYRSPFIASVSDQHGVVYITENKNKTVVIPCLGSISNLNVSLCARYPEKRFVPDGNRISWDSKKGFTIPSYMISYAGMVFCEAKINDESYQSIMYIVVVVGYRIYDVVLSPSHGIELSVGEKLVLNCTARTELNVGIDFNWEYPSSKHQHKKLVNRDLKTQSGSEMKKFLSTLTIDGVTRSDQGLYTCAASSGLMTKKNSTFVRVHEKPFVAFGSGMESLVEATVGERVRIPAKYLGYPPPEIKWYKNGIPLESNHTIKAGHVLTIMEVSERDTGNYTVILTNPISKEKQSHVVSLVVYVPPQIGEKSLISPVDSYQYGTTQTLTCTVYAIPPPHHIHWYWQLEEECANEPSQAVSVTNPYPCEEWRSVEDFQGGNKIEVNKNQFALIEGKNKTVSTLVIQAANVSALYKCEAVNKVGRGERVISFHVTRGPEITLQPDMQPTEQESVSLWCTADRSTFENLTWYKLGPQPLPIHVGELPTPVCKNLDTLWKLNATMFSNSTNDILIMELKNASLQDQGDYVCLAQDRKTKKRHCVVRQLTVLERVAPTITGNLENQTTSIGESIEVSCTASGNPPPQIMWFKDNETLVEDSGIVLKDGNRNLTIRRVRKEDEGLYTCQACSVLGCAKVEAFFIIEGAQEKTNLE

[6] = target: T3, VEGFR-2 (KDR) on transfected cells (UniProt P35968 20-1356, limits assumed); test: competitive blocking assay on 293:KDR cells; ratio of the IC50 values
T3 construct: whole, on cells; also called Flk-1
T3 sequence (P35968 20-1356 limits assumed): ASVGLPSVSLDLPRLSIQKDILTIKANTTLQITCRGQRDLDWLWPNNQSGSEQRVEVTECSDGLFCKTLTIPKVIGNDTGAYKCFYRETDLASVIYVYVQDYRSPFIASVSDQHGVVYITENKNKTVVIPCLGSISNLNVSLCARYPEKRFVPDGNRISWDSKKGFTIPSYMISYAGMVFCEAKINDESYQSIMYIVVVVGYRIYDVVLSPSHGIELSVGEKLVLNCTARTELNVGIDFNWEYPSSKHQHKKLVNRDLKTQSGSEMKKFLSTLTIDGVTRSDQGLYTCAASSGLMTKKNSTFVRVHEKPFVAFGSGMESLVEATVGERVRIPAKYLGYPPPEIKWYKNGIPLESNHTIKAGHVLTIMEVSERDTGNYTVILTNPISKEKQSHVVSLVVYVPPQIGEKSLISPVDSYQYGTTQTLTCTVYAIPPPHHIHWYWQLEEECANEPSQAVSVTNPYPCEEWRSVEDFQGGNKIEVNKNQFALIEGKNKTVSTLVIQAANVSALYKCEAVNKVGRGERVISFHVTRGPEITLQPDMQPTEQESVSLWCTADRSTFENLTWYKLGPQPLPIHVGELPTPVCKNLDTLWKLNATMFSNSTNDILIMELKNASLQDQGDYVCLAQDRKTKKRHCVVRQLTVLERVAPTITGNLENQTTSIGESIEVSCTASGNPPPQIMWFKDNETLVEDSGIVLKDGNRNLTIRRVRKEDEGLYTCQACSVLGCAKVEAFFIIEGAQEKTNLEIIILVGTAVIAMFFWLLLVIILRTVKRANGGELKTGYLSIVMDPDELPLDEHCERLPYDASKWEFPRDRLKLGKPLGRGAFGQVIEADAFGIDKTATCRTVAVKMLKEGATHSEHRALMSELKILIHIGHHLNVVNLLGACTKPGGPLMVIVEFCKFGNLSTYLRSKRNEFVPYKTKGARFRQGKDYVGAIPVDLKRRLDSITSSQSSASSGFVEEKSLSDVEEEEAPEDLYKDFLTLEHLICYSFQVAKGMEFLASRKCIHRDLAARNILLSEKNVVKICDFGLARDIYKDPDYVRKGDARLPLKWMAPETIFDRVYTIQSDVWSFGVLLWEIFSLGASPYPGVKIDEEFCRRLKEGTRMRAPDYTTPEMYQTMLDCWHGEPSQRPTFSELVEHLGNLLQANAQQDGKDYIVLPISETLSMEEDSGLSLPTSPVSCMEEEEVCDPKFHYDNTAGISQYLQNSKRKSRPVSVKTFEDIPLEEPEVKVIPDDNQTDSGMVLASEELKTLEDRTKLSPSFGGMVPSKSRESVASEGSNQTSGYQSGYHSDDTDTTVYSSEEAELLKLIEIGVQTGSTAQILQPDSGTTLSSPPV
Experimental: (§3) Similarly, the pegylated, his-tagged construct 385A08-Fn-V2B-cys was able to block the interaction of a mono-specific ¹⁰Fn3-based VEGFR-2 binder (Peg-V2Bshort, SEQ ID NO: 28) with VEGFR-2 present on 293:KDR cells. […] In particular, in a Ba/F3 assay (described below), the IC₅₀ for the monomeric, non-pegylated VEGFR2 binder V2Bshort (SEQ ID NO: 28) is approximately 0.1-3 nM whereas the IC₅₀ for the monomeric, non-pegylated VEGFR2 binder having SEQ ID NO: 44 (e.g., with an N-terminal extension) is approximately 8-13 nM. […] Both the R⁺ and 293:KDR cell based competitive blocking assays are described in detail in the materials and methods section below.
(§4) 293:KDR (Sibtech, Brookfield, Conn.) were plated in 96 well plates at a concentration of 25,000 cells per well in DMEM (Invitrogen, Carlsbad, Calif.) containing 10% fetal bovine serum (Hyclone, Logan, Utah). The following day, cells were washed twice in serum free DMEM containing 0.1% BSA (Invitrogen, Carlsbad, Calif.). After the washes, the cells were incubated at 4° C. for 10 minutes in binding buffer (serum free DMEM+0.1% BSA) containing increasing concentrations of VEGFR-2 antagonists or controls. Typical controls included the mono-specific ¹⁰Fn3-based VEGFR2 binder (Peg-V2Bshort, SEQ ID NO: 28) (positive control) or the mono-specific ¹⁰Fn3-based IGF-IR binder (AT580-PEG40, SEQ ID NO: 27) (negative control). […]

human IGF-IR-Fc fusion [7] = target: T1, human IGF-IR-Fc fusion; test: SPR (Biacore), captured IGF1R-Fc, midscale purified binder
VEGFR2-Fc (R&D Systems) [8] = target: T2, VEGFR2-Fc (R&D Systems); test: SPR (Biacore), VEGFR2-Fc immobilized directly on the chip
Experimental: as §2, §1
The functionality of the V2B domain was assessed by evaluating a concentration series of the midscale and large scale purification of the tandem construct 385A08-Fn-V2B (pegylated, and non-pegylated versions, his-tag and non-his-tag versions) vs. VEGFR2-Fc that was directly immobilized on a CM5 chip surface (GE, Piscataway, N.J.). VEGFR2-Fc (R&D Systems, MN) was diluted to 12 ug/mL in 50 mM Acetate pH 5.0 for an immobilization level of ˜1300 RU. Varying concentrations of 385A08-Fn-V2B in the solution phase were monitored for association (2 minutes) and dissociation (10 minutes) kinetics at a flow rate of 50 uL/min. Two 30 second injections of 50 mM glycine pH 1.7 were used to regenerate the surface.

VEGFR2-Fc (R&D Systems) [9] = target: T2, VEGFR2-Fc (R&D Systems); test: SPR (Biacore), immobilized VEGFR2-Fc, midscale purified binder
[10] = target: T3, VEGFR-2 (KDR) on transfected cells; test: competitive blocking assay on 293:KDR cells; competitor 200 nM IRDye 800CW-labelled Peg-V2Bshort
Experimental: as §3, §4

human IGF-IR on cells = target: T4, human IGF-IR on cells (human, UniProt P08069 31-1367); test: competitive blocking assay on R+ cells overexpressing human IGF-IR; competitor 200 nM IRDye 800CW-labelled AT580-PEG20-AT580
T4 construct: whole, on cells; also called cell surface IGF-IR
Experimental: Certain tandem constructs were evaluated for their ability to compete with mono-specific IGF-IR and VEGFR-2 binders in vitro.
R⁺, a gift from Renato Baserga (Thomas Jefferson University, Philadelphia, Pa.), is a mouse embryo fibroblast overexpressing human IGF-IR in the context of a deletion in the mouse IGF-IR gene. Cells were plated in 96 well plates at a concentration of 20,000 cells per well in DMEM (Invitrogen, Carlsbad, Calif.) containing 5% calf serum (Hyclone, Logan, Utah). The following day, cells were washed twice in serum free DMEM containing 0.1% BSA (Invitrogen, Carlsbad, Calif.). After the washes, the cells were incubated at 4° C. for 10 minutes in binding buffer (serum free DMEM+0.1% BSA) containing increasing concentrations of IGF-IR antagonists or controls. Typical controls included the mono-specific ¹⁰Fn3-based IGF-IR binder (AT580-PEG40, SEQ ID NO: 27) (positive control) or the mono-specific ¹⁰Fn3-based VEGFR2 binder (Peg-V2Bshort, SEQ ID NO: 28) (negative control). Following this brief exposure to antagonists, R⁺ cells were additionally exposed to 200 nM of a bi-valent ¹⁰Fn3-based IGF-IR binder (AT580-PEG20-AT580, SEQ ID NO: 27) labeled with IRDye 800CW according to the manufacturer instructions (Li-Cor Biosciences, Lincoln, Nebr.). […] The resulting data was analyzed using GraphPad Prism (GraphPad Software, La Jolla, Calif.).

monkey IGF1R = monkey IGF1R (monkey); test: method not stated
rat IGF1R = rat IGF1R (rat, UniProt P24062 31-933, limits assumed); test: method not stated; rat IGF1R
human IGF1R = human IGF1R (human, UniProt P08069 31-932, limits assumed); test: method not stated; human IGF1R
human IGF1R, sequence (P08069 31-932 limits assumed): as the sequence (P08069 31-932 limits assumed, form in doubt) above

mouse IGF1R = mouse IGF1R (mouse, UniProt Q60751 31-933, limits assumed); test: method not stated; mouse IGF1R

VEGFR-2 in nude mice (in vivo), sequence (P35918 20-1345 limits assumed): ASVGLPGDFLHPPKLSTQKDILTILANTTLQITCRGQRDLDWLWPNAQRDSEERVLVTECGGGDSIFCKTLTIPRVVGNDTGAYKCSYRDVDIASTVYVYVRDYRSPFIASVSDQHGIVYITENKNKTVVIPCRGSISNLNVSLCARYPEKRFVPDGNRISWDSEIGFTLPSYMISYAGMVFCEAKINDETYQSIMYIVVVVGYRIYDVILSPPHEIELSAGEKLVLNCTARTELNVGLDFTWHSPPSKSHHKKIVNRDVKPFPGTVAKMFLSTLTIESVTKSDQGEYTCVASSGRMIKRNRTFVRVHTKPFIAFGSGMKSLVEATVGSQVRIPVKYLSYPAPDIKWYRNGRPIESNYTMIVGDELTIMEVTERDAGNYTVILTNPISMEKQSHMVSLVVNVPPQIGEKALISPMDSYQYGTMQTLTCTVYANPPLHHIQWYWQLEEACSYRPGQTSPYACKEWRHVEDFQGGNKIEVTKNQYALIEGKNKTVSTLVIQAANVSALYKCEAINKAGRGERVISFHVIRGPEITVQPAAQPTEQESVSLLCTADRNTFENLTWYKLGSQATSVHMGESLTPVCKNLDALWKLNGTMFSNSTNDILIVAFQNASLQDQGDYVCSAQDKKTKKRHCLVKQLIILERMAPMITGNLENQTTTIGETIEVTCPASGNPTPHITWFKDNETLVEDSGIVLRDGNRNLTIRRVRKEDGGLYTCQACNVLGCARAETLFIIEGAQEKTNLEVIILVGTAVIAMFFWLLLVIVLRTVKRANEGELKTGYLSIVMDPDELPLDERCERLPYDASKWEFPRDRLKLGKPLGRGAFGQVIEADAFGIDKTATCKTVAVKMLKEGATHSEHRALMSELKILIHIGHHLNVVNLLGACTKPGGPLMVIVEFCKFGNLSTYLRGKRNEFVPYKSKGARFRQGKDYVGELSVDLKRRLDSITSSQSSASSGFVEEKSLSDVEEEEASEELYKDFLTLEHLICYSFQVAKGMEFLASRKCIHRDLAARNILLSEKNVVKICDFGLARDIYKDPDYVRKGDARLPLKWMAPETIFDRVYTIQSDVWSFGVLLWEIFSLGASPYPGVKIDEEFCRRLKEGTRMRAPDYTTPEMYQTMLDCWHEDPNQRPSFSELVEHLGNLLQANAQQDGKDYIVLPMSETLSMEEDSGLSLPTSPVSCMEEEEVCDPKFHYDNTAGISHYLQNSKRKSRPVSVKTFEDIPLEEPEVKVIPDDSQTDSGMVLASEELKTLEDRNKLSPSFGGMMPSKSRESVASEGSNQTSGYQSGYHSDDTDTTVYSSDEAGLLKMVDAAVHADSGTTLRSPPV

plasma IC50, indirect-response PD model, nude mice bearing the Rh41 tumor [1]: 13800 nM
plasma IC50 (grand mean), PK/PD model, monkeys [2]: 228 nM
Kd (human IGF-IR-Fc fusion [3]): 1.2 nM
Kd (human IGF-IR-Fc fusion [4]): 0.831 nM and 0.465 nM and 0.857 nM
koff (human IGF-IR-Fc fusion [4]): 0.00025 s⁻¹ and 0.000223 s⁻¹ and 0.000238 s⁻¹
kon (human IGF-IR-Fc fusion [4]): 299000 M⁻¹ s⁻¹ and 480000 M⁻¹ s⁻¹ and 277000 M⁻¹ s⁻¹
Kd (VEGFR2-Fc (R&D Systems) [5]): 14 nM
fold difference in activity against Peg-V2Bshort [6]: 7 fold
koff (human IGF-IR-Fc fusion [7]): 0.000233 s⁻¹
kon (human IGF-IR-Fc fusion [7]): 200000 M⁻¹ s⁻¹
Kd (VEGFR2-Fc (R&D Systems) [8]): 11 nM and 5.96 nM and 12.6 nM
koff (VEGFR2-Fc (R&D Systems) [8]): 9.5e-05 s⁻¹ (2×) and 0.00013 s⁻¹
kon (VEGFR2-Fc (R&D Systems) [8]): 8600 M⁻¹ s⁻¹ and 21800 M⁻¹ s⁻¹ and 7530 M⁻¹ s⁻¹
koff (VEGFR2-Fc (R&D Systems) [9]): 0.000149 s⁻¹
kon (VEGFR2-Fc (R&D Systems) [9]): 10600 M⁻¹ s⁻¹
IC50 [10]: ~140 nM
IC50 (human IGF-IR on cells): 900 nM
B1: pegylated, his-tagged 385A08-Fn-V2B-cys (designed binder)
chain: MGVSDVPRDLEVVAATPTSLLISWSARLKVARYYRITYGETGGNSPVQEFTVPKNVYTATISGLKPGVDYTITVYAVTRFRDYQPISINYRTEIDKPSTSTSTVSDVPRDLEVVAATPTSLLISWRHPHFPTRYYRITYGETGGNSPVQEFTVPLQPPTATISGLKPGVDYTITVYAVTDGRNGRLLSIPISINYRTEIDKPCQHHHHHH
modifications: 40 kD PEG on the single cysteine at position 203 (linear PEG in paragraph 246; type of PEG not stated in Example 6)
notes: also called 385A08-Fn-V2B-cys (with PEG and his-tag); linear pegylated, his-tagged 385A08-Fn-V2B-cys

Kd (monkey IGF1R): 0.213 nM
Kd (rat IGF1R): 92 nM
Kd (human IGF1R): 0.277 nM
Kd (mouse IGF1R): 86 nM
B2: 385A08-Fn-V2B-cys (with Peg) (designed binder)
chain: MGVSDVPRDLEVVAATPTSLLISWSARLKVARYYRITYGETGGNSPVQEFTVPKNVYTATISGLKPGVDYTITVYAVTRFRDYQPISINYRTEIDKPSTSTSTVSDVPRDLEVVAATPTSLLISWRHPHFPTRYYRITYGETGGNSPVQEFTVPLQPPTATISGLKPGVDYTITVYAVTDGRNGRLLSIPISINYRTEIDKPCQ
modifications: PEG on the single cysteine at position 203
